Source: PMC4118958, “Association of BLM and BRCA1 during Telomere Maintenance in ALT Cells” (PLoS ONE, 2014)

Target: BLM helicase, mutated in Bloom's syndrome (human (endogenous in U2OS), UniProt P54132 1-1417)
Experiment: cell-based or functional assay

Sequence of BLM helicase, mutated in Bloom's syndrome (P54132 whole entry, change not shown): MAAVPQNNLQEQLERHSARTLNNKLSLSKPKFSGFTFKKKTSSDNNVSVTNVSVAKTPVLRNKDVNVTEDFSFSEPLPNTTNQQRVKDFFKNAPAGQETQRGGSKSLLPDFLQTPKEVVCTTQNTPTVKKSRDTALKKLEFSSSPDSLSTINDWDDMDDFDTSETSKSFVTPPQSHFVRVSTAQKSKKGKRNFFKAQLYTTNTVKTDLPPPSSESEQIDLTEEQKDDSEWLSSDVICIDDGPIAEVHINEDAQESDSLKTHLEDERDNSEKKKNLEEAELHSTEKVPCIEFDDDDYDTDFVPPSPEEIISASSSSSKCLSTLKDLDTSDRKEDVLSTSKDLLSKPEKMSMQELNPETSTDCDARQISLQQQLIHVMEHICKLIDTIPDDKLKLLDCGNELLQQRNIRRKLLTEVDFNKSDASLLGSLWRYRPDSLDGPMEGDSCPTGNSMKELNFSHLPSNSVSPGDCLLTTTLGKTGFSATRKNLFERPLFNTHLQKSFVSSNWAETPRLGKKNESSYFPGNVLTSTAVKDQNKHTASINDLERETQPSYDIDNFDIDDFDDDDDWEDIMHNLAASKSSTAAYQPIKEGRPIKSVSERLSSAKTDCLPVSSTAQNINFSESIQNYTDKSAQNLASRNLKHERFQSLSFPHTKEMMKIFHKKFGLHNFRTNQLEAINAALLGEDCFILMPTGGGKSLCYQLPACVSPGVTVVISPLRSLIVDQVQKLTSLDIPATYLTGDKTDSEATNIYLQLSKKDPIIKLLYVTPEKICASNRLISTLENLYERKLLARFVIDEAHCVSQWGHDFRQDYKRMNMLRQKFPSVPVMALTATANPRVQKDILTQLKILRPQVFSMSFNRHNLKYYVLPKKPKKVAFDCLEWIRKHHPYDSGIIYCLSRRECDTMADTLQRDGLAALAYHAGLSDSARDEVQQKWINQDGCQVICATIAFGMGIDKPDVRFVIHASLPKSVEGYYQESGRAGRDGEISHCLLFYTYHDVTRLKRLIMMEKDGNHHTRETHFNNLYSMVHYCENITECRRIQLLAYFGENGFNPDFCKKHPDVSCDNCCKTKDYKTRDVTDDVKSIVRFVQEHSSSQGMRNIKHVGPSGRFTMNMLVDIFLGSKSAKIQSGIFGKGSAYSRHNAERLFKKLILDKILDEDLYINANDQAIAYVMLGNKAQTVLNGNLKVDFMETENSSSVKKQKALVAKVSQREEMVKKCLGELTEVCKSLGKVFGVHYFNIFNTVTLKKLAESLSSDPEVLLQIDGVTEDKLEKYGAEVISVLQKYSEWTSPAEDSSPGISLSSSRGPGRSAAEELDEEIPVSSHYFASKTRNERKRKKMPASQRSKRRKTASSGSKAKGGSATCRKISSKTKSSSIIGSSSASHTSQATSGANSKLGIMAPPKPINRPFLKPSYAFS

fold stimulation of BLM helicase activity by 3 nM full-length BRCA1 on a non-telomeric fork substrate: ~1.9 fold | fold stimulation of BLM helicase activity by 3 nM full-length BRCA1 on the fork substrate with two telomeric repeats: ~3.6 fold | initial unwinding rate of BLM (1.2 nM) on the telomeric fork in the presence of 3 nM BRCA1, fold increase: 1.7 fold
B1: BRCA1 tumor suppressor (natural protein, human (endogenous in U2OS), UniProt P38398 1-1863, looked up)
chain: MDLSALRVEEVQNVINAMQKILECPICLELIKEPVSTKCDHIFCKFCMLKLLNQKKGPSQCPLCKNDITKRSLQESTRFSQLVEELLKIICAFQLDTGLEYANSYNFAKKENNSPEHLKDEVSIIQSMGYRNRAKRLLQSEPENPSLQETSLSVQLSNLGTVRTLRTKQRIQPQKTSVYIELGSDSSEDTVNKATYCSVGDQELLQITPQGTRDEISLDSAKKAACEFSETDVTNTEHHQPSNNDLNTTEKRAAERHPEKYQGSSVSNLHVEPCGTNTHASSLQHENSSLLLTKDRMNVEKAEFCNKSKQPGLARSQHNRWAGSKETCNDRRTPSTEKKVDLNADPLCERKEWNKQKLPCSENPRDTEDVPWITLNSSIQKVNEWFSRSDELLGSDDSHDGESESNAKVADVLDVLNEVDEYSGSSEKIDLLASDPHEALICKSERVHSKSVESNIEDKIFGKTYRKKASLPNLSHVTENLIIGAFVTEPQIIQERPLTNKLKRKRRPTSGLHPEDFIKKADLAVQKTPEMINQGTNQTEQNGQVMNITNSGHENKTKGDSIQNEKNPNPIESLEKESAFKTKAEPISSSISNMELELNIHNSKAPKKNRLRRKSSTRHIHALELVVSRNLSPPNCTELQIDSCSSSEEIKKKKYNQMPVRHSRNLQLMEGKEPATGAKKSNKPNEQTSKRHDSDTFPELKLTNAPGSFTKCSNTSELKEFVNPSLPREEKEEKLETVKVSNNAEDPKDLMLSGERVLQTERSVESSSISLVPGTDYGTQESISLLEVSTLGKAKTEPNKCVSQCAAFENPKGLIHGCSKDNRNDTEGFKYPLGHEVNHSRETSIEMEESELDAQYLQNTFKVSKRQSFAPFSNPGNAEEECATFSAHSGSLKKQSPKVTFECEQKEENQGKNESNIKPVQTVNITAGFPVVGQKDKPVDNAKCSIKGGSRFCLSSQFRGNETGLITPNKHGLLQNPYRIPPLFPIKSFVKTKCKKNLLEENFEEHSMSPEREMGNENIPSTVSTISRNNIRENVFKEASSSNINEVGSSTNEVGSSINEIGSSDENIQAELGRNRGPKLNAMLRLGVLQPEVYKQSLPGSNCKHPEIKKQEYEEVVQTVNTDFSPYLISDNLEQPMGSSHASQVCSETPDDLLDDGEIKEDTSFAENDIKESSAVFSKSVQKGELSRSPSPFTHTHLAQGYRRGAKKLESSEENLSSEDEELPCFQHLLFGKVNNIPSQSTRHSTVATECLSKNTEENLLSLKNSLNDCSNQVILAKASQEHHLSEETKCSASLFSSQCSELEDLTANTNTQDPFLIGSSKQMRHQSESQGVGLSDKELVSDDEERGTGLEENNQEEQSMDSNLGEAASGCESETSVSEDCSGLSSQSDILTTQQRDTMQHNLIKLQQEMAELEAVLEQHGSQPSNSYPSIISDSSALEDLRNPEQSTSEKAVLTSQKSSEYPISQNPEGLSADKFEVSADSSTSKNKEPGVERSSPSKCPSLDDRWYMHSCSGSLQNRNYPSQEELIKVVDVEEQQLEESGPHDLTETSYLPRQDLEGTPYLESGISLFSDDPESDPSEDRAPESARVGNIPSSTSALKVPQLKVAESAQSPAAAHTTDTAGYNAMEESVSREKPELTASTERVNKRMSMVVSGLTPEEFMLVYKFARKHHITLTNLITEETTHVVMKTDAEFVCERTLKYFLGIAGGKWVVSYFWVTQSIKERKMLNEHDFEVRGDVVNGRNHQGPKRARESQDRKIFRGLEICCYGPFTNMPTDQLEWMVQLCGASVVKELSSFTLGTGVHPIVVVQPDAWTEDNGFHAIGQMCEAPVVTREWVLDSVALYQCQELDTYLIPQIPHSHY
